Where a chain is given by its changes, count along the chain named. One block for each binder: values may come before it.
Tests used:
[1] = molecular target: T1, GST^4CS-RGA recombinant protein (REPRESSOR-OF-ga1-3) (Arabidopsis, UniProt Q9SLH3 1-587); experiment: pull-down
T1 sequence (looked up): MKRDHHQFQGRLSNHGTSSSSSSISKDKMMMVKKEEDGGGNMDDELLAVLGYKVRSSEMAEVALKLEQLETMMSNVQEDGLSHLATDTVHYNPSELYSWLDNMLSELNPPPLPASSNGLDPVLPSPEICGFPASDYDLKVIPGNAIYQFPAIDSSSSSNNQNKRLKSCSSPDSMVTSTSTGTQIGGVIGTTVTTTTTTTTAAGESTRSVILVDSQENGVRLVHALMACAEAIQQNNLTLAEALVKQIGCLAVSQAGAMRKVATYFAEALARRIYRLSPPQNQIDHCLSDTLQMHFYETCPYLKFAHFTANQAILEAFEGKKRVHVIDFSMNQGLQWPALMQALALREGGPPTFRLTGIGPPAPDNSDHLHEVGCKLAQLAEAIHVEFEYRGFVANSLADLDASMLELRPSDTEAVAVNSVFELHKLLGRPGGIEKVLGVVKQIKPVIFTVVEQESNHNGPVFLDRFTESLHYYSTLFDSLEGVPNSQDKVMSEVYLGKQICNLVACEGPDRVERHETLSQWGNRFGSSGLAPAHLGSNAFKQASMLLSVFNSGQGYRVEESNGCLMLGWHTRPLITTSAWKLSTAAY

[2] = molecular target: T2, GST^4CS-RGA^C374S recombinant protein (Arabidopsis, UniProt Q9SLH3 1-587, C374S); experiment: pull-down
T2 sequence (looked up): T1 sequence (looked up) with C374S

binding result [1]: binds
B1: His-GID1a recombinant protein (GA-… DWARF1a) (receptor, Arabidopsis, UniProt Q9MAA7 1-345, looked up)
chain: MAASDEVNLIESRTVVPLNTWVLISNFKVAYNILRRPDGTFNRHLAEYLDRKVTANANPVDGVFSFDVLIDRRINLLSRVYRPAYADQEQPPSILDLEKPVDGDIVPVILFFHGGSFAHSSANSAIYDTLCRRLVGLCKCVVVSVNYRRAPENPYPCAYDDGWIALNWVNSRSWLKSKKDSKVHIFLAGDSSGGNIAHNVALRAGESGIDVLGNILLNPMFGGNERTESEKSLDGKYFVTVRDRDWYWKAFLPEGEDREHPACNPFSPRGKSLEGVSFPKSLVVVAGLDLIRDWQLAYAEGLKKAGQEVKLMHLEKATVGFYLLPNNNHFHNVMDEISAFVNAEC

binding result [1]: binds
B2: His-GID1c recombinant protein (GA-… DWARF1c) (receptor, Arabidopsis, UniProt Q940G6 1-344, looked up)
chain: MAGSEEVNLIESKTVVPLNTWVLISNFKLAYNLLRRPDGTFNRHLAEFLDRKVPANANPVNGVFSFDVIIDRQTNLLSRVYRPADAGTSPSITDLQNPVDGEIVPVIVFFHGGSFAHSSANSAIYDTLCRRLVGLCGAVVVSVNYRRAPENRYPCAYDDGWAVLKWVNSSSWLRSKKDSKVRIFLAGDSSGGNIVHNVAVRAVESRIDVLGNILLNPMFGGTERTESEKRLDGKYFVTVRDRDWYWRAFLPEGEDREHPACSPFGPRSKSLEGLSFPKSLVVVAGLDLIQDWQLKYAEGLKKAGQEVKLLYLEQATIGFYLLPNNNHFHTVMDEIAAFVNAECQ

binding result [2]: binds
B3: His-SLY1 recombinant protein (F-box protein SLEEPY1) (natural protein, Arabidopsis, UniProt Q9STX3 1-151, looked up)
chain: MKRSTTDSDLAGDAHNETNKKMKSTEEEEIGFSNLDENLVYEVLKHVDAKTLAMSSCVSKIWHKTAQDERLWELICTRHWTNIGCGQNQLRSVVLALGGFRRLHSLYLWPLSKPNPRARFGKDELKLTLSLLSIRYYEKMSFTKRPLPESK

From publication doi:10.1101/2022.02.13.480237 (bioRxiv, 2022)
